The text below walks through data of FireProtDB (doi:10.1021/bi0362267).

The conditions of the series: Bacillus amyloliquefaciens, pH 6.3, Thermal, CD, Mes 50 mM, whole UniProt chain shown.

What is called Tm is the temperature at the midpoint of the melting transition.

B1: Ribonuclease wild type, P00648 (protein)
chain: MMKMEGIALKKRLSWISVCLLVLVSAAGMLFSTAAKTETSSHKAHTEAQVINTFDGVADYLQTYHKLPDNYITKSEAQALGWVASKGNLADVAPGKSIGGDIFSNREGKLPGKSGRTWREADINYTSGFRNSDRILYSSDWLIYKTTDHYQTFTKIR
As to B1, the Tm was determined as 52.2 °C and the “unfolding enthalpy (van 't Hoff)” value turned out to be 137 kcal/mol. Moreover, the unfolding free energy (25 °C) turned out to be 9.5 kcal/mol.
